Laboratory results taken from patent US20240317834A1, “COMPOSITIONS AND METHODS FOR NEUROLOGICAL DISEASES” (CODA BIOTHERAPEUTICS, INC., priority 2020, published 2024).

Tests used:
rat DRG neurons = test: Rheobase shift and evoked action potentials in rat DRG neurons (current clamp); type: cell-based
Method in brief: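 Rat DRG neurons expressing engineered receptors, whole-cell current clamp at RT. ECS at pH 7.3; K-gluconate internal at pH 7.2. 500 ms steps from −200 to 700 pA with and without ligand. Rheobase taken as the smallest depolarising step that fires an action potential; input resistance from negative steps.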

Lenti-X 293T cells = test: YFP fluorescence quenching anion reporter plate reader assay of engineered receptors stimulated with acetylcholine or a non-native ligand; type: cell-based
Method in brief: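 YFP quench was followed for about 1 min 43 s after ligand delivered in iodide-based ECS, pH 7.2. Values are end-of-read fluorescence (last 10 s) divided by the pre-ligand baseline (15 s). Cells were LX293T, transfected with receptor DNA a day before the assay.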

B1: CODA806: engineered chimeric LGIC receptor, Y115D, L131Q in SEQ ID NO: 33 (protein)
chain: MRCSPGGVWLALAASLLHVSLQGEFQRKLYKELVKNYNPLERPVANDSQPLTVYFSLSLLQIMDVDEKNQVLTTNIWLQMSWTDHYLQWNVSEYPGVKTVRFPDGQIWKPDILLDNSADERFDATFHTNVQVNSSGHCQYLPPGIFKSSCPMDLKNFPMDVQTCKLKFGSWSYGGWSLDLQMQEADISGYIPNGEWDLVGIPGKRSERFYECCKEPYPDVTFTVTMRRRMGYYLIQMYIPSLLIVILSWISFWINMDAAPARVGLGITTVLTMTTQSSGSRASLPKVSYVKAIDIWMAVCLLFVFSALLEYAAVNFVSRQHKELLRFRRKRRHHKSPMLNLFQEDEAGEGRFNFSAYGMGPACLQAKDGISVKGANNSNTTNPPPAPSKSPEEMRKLFIQRAKKIDKISRIGFPMAFLIFNMFYWIIYKIVRREDVHNQ
modifications: synthetic sequence of chimeric LGIC
Rheobase Shift; Rat DRG Neurons, Baseline (rat DRG neurons; Baseline, no ligand): 163 ± 28 pA
Rheobase Shift; Rat DRG Neurons, Facinicline/RG-3487 @ EC90 (rat DRG neurons; Facinicline/RG-3487 @ EC90): 625 ± 35 pA
effect on current injection evoked action potentials (rat DRG neurons; RG-3487 (SA-2) 3 μM, transduced rat DRG neurons): reversibly inhibits
increase in the current required to elicit action potentials (rheobase) (rat DRG neurons; RG-3487 (SA-2) 3 μM, transduced rat DRG neurons, n=7): ~3 ×
effect on evoked action potentials (rat DRG neurons; acetylcholine 3.0 mM, transduced rat DRG neurons, n=4): no effect
YFP fluorescence quenching using CNL001 (Lenti-X 293T cells; 1 nM CNL001, first column): 6.587%
YFP fluorescence quenching using CNL001 (Lenti-X 293T cells; 1 nM CNL001, second column): −5.179%
YFP fluorescence quenching using TC-5619/Bradanicline (Lenti-X 293T cells; 1 nM brd): 0.92%
YFP fluorescence quenching using TC-5619/Bradanicline (Lenti-X 293T cells; 3 nM brd): −4.65%
YFP fluorescence quenching using CNL001 (Lenti-X 293T cells; 10 nM CNL001, first column): −2.366%
YFP fluorescence quenching using CNL001 (Lenti-X 293T cells; 10 nM CNL001, second column): −1.272%
YFP fluorescence quenching using TC-5619/Bradanicline (Lenti-X 293T cells; 10 nM brd): 0.38%
YFP fluorescence quenching using TC-5619/Bradanicline (Lenti-X 293T cells; 30 nM brd): −8.96%
YFP fluorescence quenching using Facinicline (Lenti-X 293T cells; 30 nM fac): 41.32
YFP fluorescence quenching using CNL001 (Lenti-X 293T cells; 50 nM CNL001, first column): 2.763%
YFP fluorescence quenching using CNL001 (Lenti-X 293T cells; 50 nM CNL001, second column): 1.995%
YFP fluorescence quenching using ABT-126 (Lenti-X 293T cells; 50 nM abt): −1.81%
YFP fluorescence quenching using CNL001 (Lenti-X 293T cells; 100 nM CNL001, first column): 3.091%
YFP fluorescence quenching using CNL001 (Lenti-X 293T cells; 100 nM CNL001, second column): 1.45%
YFP fluorescence quenching using CNL002 (Lenti-X 293T cells; 100 nM CNL002): −10.03%
YFP fluorescence quenching using ABT-126 (Lenti-X 293T cells; 100 nM abt): −2.61%
YFP fluorescence quenching using AZD-0328 (Lenti-X 293T cells; 100 nM azd0328): 12.15%
YFP fluorescence quenching using TC-5619/Bradanicline (Lenti-X 293T cells; 100 nM brd): 12.18%
YFP fluorescence quenching using Facinicline (Lenti-X 293T cells; 100 nM fac): 59.51
YFP fluorescence quenching using ABT-126 (Lenti-X 293T cells; 300 nM abt): −3.78%
YFP fluorescence quenching using AZD-0328 (Lenti-X 293T cells; 300 nM azd0328): 30.92%
YFP fluorescence quenching using TC-5619/Bradanicline (Lenti-X 293T cells; 300 nM brd): −0.3%
YFP fluorescence quenching using Facinicline (Lenti-X 293T cells; 300 nM fac): 74.86
YFP fluorescence quenching using CNL001 (Lenti-X 293T cells; 1 uM CNL001, first column): 7.331%
YFP fluorescence quenching using CNL001 (Lenti-X 293T cells; 1 uM CNL001, second column): 9.103%
YFP fluorescence quenching using CNL002 (Lenti-X 293T cells; 1 uM CNL002): −3.33%
YFP fluorescence quenching using ABT-126 (Lenti-X 293T cells; 1 uM abt): −2.6%
YFP fluorescence quenching using TC-5619/Bradanicline (Lenti-X 293T cells; 1 uM brd): 45.47%
YFP fluorescence quenching using TC-6987 (Lenti-X 293T cells; 1 uM tc6987): 38.83
YFP fluorescence quenching using Facinicline (Lenti-X 293T cells; 10 uM fac): 78.53
YFP fluorescence quenching using TC-6987 (Lenti-X 293T cells; 10 uM tc6987): 31.59
YFP fluorescence quenching using CNL002 (Lenti-X 293T cells; 30 uM CNL002): 6.96%
YFP fluorescence quenching using AZD-0328 (Lenti-X 293T cells; 30 uM azd0328): 68.65%
YFP fluorescence quenching using Facinicline (Lenti-X 293T cells; 30 uM fac): 84.45
YFP fluorescence quenching using TC-6987 (Lenti-X 293T cells; 500 uM tc6987): 29.83
percent quench of YFP fluorescence, 10 uM ach (Lenti-X 293T cells; acetylcholine 10 uM): 9.47%
percent quench of YFP fluorescence, 100 uM ach (Lenti-X 293T cells; acetylcholine 100 uM): 6.12%
percent quench of YFP fluorescence, 1 mM ach (Lenti-X 293T cells; acetylcholine 1 mM): −1.56%
percent quench of YFP fluorescence, 3 mM ach (Lenti-X 293T cells; acetylcholine 3 mM): 17.57%
